Assay results published in the supplement of paper PMC9170038.

Test system: MS2 coat protein
Experiment: apparent KD of MS2 coat protein; designed switch direction (-1 OFF switch, 1 ON switch): 1; higher = weaker reporter binding
How it was run: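 For each design, the apparent KD is the median over clusters of curves fitted to normalised cluster fluorescence. Clusters held RNA switches with common flanks, transcribed on Illumina chips by stalled E. coli RNA polymerase. These were titrated with SNAP-549-labelled MS2 coat protein, doubling from 0.7 or 1.5 nM to 3 µM, without input, with 200 uM small-molecule ligand, or with an oligonucleotide input.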

[1] = input ligand: microRNA oligo, concentration not stated
[2] = Eterna round: R95, input ligand: FMN 200 uM
[3] = Eterna round: R95, input ligand: microRNA oligo, concentration not stated
[4] = Eterna round: R95, input ligand: none

Row | Sequence | apparent KD of MS2 coat protein (input ligand: FMN 200 uM) [nM] | apparent KD of MS2 coat protein [1] [nM] | apparent KD of MS2 coat protein (input ligand: none) [nM] | apparent KD of MS2 coat protein [2] [nM] | apparent KD of MS2 coat protein [3] [nM] | apparent KD of MS2 coat protein [4] [nM]
1 | GUUAGGAAUCUAGCACACAUGAGGAUCACCCAUGUUAGUGGGAAGGAUAUGGUACAGAAACUGUACCAGAAGGUCUUAUUGUUU [Omei SS(NG) 3 AV14] (Eterna round: R96, puzzle: Same State NG 3) | 93.8 | 67.6 | 142 |  |  | 
2 | CCAAUGUACAAUUUAGAUCUACAUGAGGAUCACCCAUGUACAGAGGAUAUCAGCUCGUUUAGAGCUGAGAAGGCUGAAUUAAUU [SSNG3/3-A3] (Eterna round: R96, puzzle: Same State NG 3) | 111 | 139 | 327 |  |  | 
3 | UGCUAGUGGGUAGGAUAUUUAGGAUAUGGGAAAGACUAAGUCUGUAGGUCACCUAACCCAGAAGGAGAGAAGGACCAUUCAGCU [pwkr ssNG2 2FMN + F9.27] (Eterna round: R96, puzzle: Same State NG 2) | 30.3 | 4.33 | 28.5 |  |  | 
4 | UUAAUAAAGUAAGGAUAUACAUGAGGAUCACUCGUAGAAGGUACUAUACAUGAGGAUCACCCAUGUUCCGGUCAGAAGACUGGA [Mat - Same State NG 1 - JL mod - D4] (Eterna round: R96, puzzle: Same State NG 1) |  | 440 |  |  |  | 
5 | GAGUAGUUGGGAGGAUAUCGAUUGUUAUAGAAUCGAGAAGGUUCUAACAUGAGGAUCACCCAUGUAGGACUAUUCCUGUGUAUC [Parity 74 - Jieux - Same State NG 1] (Eterna round: R96, puzzle: Same State NG 1) |  | 37.3 |  |  |  | 
6 | ACCCGCGGGCCACAUGAGGAUCACCCAUGUGACCGGUGAUCCAAGGAUAUACGUGUGAUAGACGCGUAGAAGGUGGCCAAAACU [Rirazaedat] (Eterna round: R96, puzzle: Same State NG 3) | 127 | 29.3 | 31.9 |  |  | 
7 | UGGUACAUGGGAGGAUAUCCUCAGGAGACAUGAGGAUCACCCAUGUAAUUAAAGCCGAAAGGCAUGGAGAAGGCCCAUGUACCU [JL SSNG1 3.79] (Eterna round: R96, puzzle: Same State NG 2) | 20.1 | 172 | 131 |  |  | 
8 | GGCAGGUGCAGGCUUGCUUGCACCUGGAGACAUGAGGAUCACCCAUGUUUGGGACAAGCUUUGCUCUUCGUCUUUUC [JL ViennaUCT Isusreraar mod 6] (puzzle: Sensor for hsa-mir-208a) |  |  |  | 74.1 | 105 | 107
9 | UUUAGUUGCGGGCAGGAUAUGUAUUAAAAUACAUGAGGAUCACCCAUGUGCGGGUAUAACACCCGACAGAAGGGCCAAUCGCAAC [Laonerce - 6] (puzzle: Same State 2) |  |  |  | 22.2 | 142 | 240
10 | CUGAGCGAUCAAGGAUAUCACGUCGAUUAGACGUGAGAAGGUGAUCAUAACAUGAGGAUCACCCAUGUAUUACAUGAAGCUCAG [SSNG1/2-A2] (Eterna round: R96, puzzle: Same State NG 1) | 386 | 146 | 1620 |  |  | 
11 | GGGCCAGCUUGUGCUGGGCCUUCGCAUGCACAUGAGGAUCACCCAUGUCGUGUACAUGCUUGGUGCCCGUCUUUCCC [Photon Torp-14] (puzzle: Sensor for hsa-mir-208a) |  |  |  | 84.5 | 20.9 | 85.8
12 | GACCGCGAGGAAGGAUAUGGAGCCUUAUUGGCUCCAGAAGGUCCAUAAAGGACAUGAGGAUCACCCAUGUGGGCUGAAGCGGUC [Fiskers NG1ss - 9] (Eterna round: R96, puzzle: Same State NG 1) | 22 | 25.8 | 35.1 |  |  | 
13 | GGAGGACAUGAGGAUCACCCAUGUGGAUGAACGCUAGGAUAUGCGUGCAGGAAGAGUGGAGCAGAAGGAGUGGGUU [JR_SS1_Sub046] (puzzle: Same State 1) |  |  |  |  | 21.7 | 
14 | GGAGCCAAGGCAGGAUAUUCAUAUAAAUAAACAUGAGGAUCACCCAUGUAGGCCAGAAGGCCUUGGGAGAAGGGCCAUGGCUCG [Xeonanis - 13 mod6] (Eterna round: R96, puzzle: Same State NG 2) | 19.4 | 69.8 | 121 |  |  | 
15 | UGUUAACAUGAGGAUCACCCAUGUCAAAUGAAUCGAGGAUAUGGAAAGUAAUAAGAUGAACUAGAAGGCGAAGUUG [Altered State 1-18 - Jieux - Same State 1] (puzzle: Same State 1) |  |  |  | 46.2 | 87.9 | 86.7
16 | GUUACAUGAGGAUCACCCAUGUAUGUGUGGGAGUAAGUGACUUAGGAUAUCUAAUAUUUAAAUUAAGAGAAGGAAGAUUGUUGU [JMF's solution 5] (Eterna round: R96, puzzle: Same State NG 3) | 266 | 131 | 202 |  |  | 
17 | GGUCCAGCCUGAGCUGGACAAAAGCAUGUACAUGAGGAUCACCCAUGUUCAUGUACAAGCUUUUUGCUCGUCUUAAA [salish99_208a_r3_035] (puzzle: Sensor for hsa-mir-208a) |  |  |  | 427 | 14.7 | 633
18 | UAUGAAUUGCAAGGAUAUUGAUAACAUGAGGAUCACCCAUGUAAUUGUUCGAGUUAGAUUAGUUACAAGAAGGUGCUAUUGUUU [JR_SSNG2_Sub038] (Eterna round: R96, puzzle: Same State NG 2) | 350 | 459 | 337 |  |  | 
19 | AGUCCAGCCUGAGCUGGACAAAAGCAUGUACAUGAGGAUCACCCAUGUCAUGUACAAGCUUUUUGCAAAUCUUAAUA [Mat - hsa-mir-208a - Mod of JL - D34] (puzzle: Sensor for hsa-mir-208a) |  |  |  | 603 | 14.6 | 807
20 | GCCGCGUUUCGCGCCUACAUGAGGAUCACCCAUGUUUGUAGGCAGGAUAUCGUUUGCUUUGCAAGCGAGAAGGGCUGUUGUGGC [salish99_SSNG3_R04_015] (Eterna round: R96, puzzle: Same State NG 3) | 44.3 | 39.2 | 50.7 |  |  | 
21 | GGAGCCGGCACUGAGGAUAUUCAUAUUAAAACAUGAGGAUCACCCAUGUAGGCCAGAAGGCCUUGGGAGAAGGCAGGUCGGCUCG [salish99_ss2_r3_075] (puzzle: Same State 2) |  |  |  | 27.1 | 408 | 901
22 | AUUAAACAUGAGGAUCACCCAUGUCAACAAAGUCGAGGAUAUGGGCAAAUUAAAUAAGAACCAGAAGGCGAAUAAU [salish99_ss1_r3_060] (puzzle: Same State 1) |  |  |  | 35.9 | 189 | 269
23 | GGUAAACAUGAGGAUCACCCAUGUAAUAAUAUGGGAGGAUAUGGGAAUUAAUUAAUUAAACCAGAAGGCCUAAUGG [Mat - Same State 1 - D86] (puzzle: Same State 1) |  |  |  | 133 | 424 | 628
